The values that follow come from patent US20230220111A1 (BEIJING TUO JIE BIOPHARMACEUTICAL, published 2023).

Assay [1] concerns the target T1, Human FXI protein (coagulation factor XI) (human, UniProt P03951 19-625). In words: cell-based or functional assay.
Assay [2] concerns the target monkey FXI (in monkey plasma) (monkey). In words: cell-based or functional assay.
Assay [3] deals with T2, Human FXIa protein (activated coagulation factor XI) (human, UniProt P03951 19-625).
T2 construct: Bought from Enzyme Research Laboratories (HFXIa 1111a); also called factor XIa; HFXIa 1111a
In words: SPR (Biacore T200), antibody captured on Protein A chip, FXIa as analyte, 1:1 Langmuir fit. An excerpt: (§1) A certain amount of antibodies to be tested was affinity-captured using a Protein A biosensor chip (Cat. #29127556, GE), then FXI/FXIa at a series of concentration gradients flowed through the surface of the chip. The reaction signals were detected in real time using a Biacore instrument (Biacore T200, GE) to obtain association and dissociation curves. After dissociation was completed for each cycle, the biochip was washed and regenerated with a regeneration solution prepared in a human antibody capture kit or a glycine-hydrochloric acid regeneration solution (pH 1.5, Cat. #BR-1003-54, GE). The buffer used in the experiment was HBS-EP+10× buffer (Cat. #BR-1006-69, GE) diluted to 1× (pH 7.4) with double distilled water.
(§2) The data obtained from the experiment were fitted using BIAevaluation version 4.1, GE software using a (1:1) Langmuir model to obtain affinity values. The test results of part of antibodies are shown in FIG. 1A, FIG. 1B and Table 6 below.

The target in assay [4] is T1, Human FXI protein (coagulation factor …). Description: SPR (Biacore T200), antibody captured on Protein A chip, FXI as analyte, 1:1 Langmuir fit.
Source text: as §1, §2
Background: SPR reads the build-up and loss of mass on a sensor chip optically.

B1: antibody 3807 (antibody, V domains shown)
VH: EVQLQQSGAELVRPGTSVKLSCIASGFNIKDDYMHWVKQRPEQGLEWIGWIDPENGDTEYASKFQGKATITADTSANTAYLQFSSLTSEDTAVYYCLYGNFYYFDYWGQGTTLTVSS
VL: QIVLTQSPAIMSASPGEKVTMTCSASSSINYMHWYQQKPGTSPKRWIYDTSKLASGVPARFSGSGSGTSYSLTISSMEAEDAATYYCHQRSFSPLTFGAGTKLELK
notes: Murine variable regions; also called murine antibody 3807; hybridoma clone 3807
With B1, the “aPTT1.5 (concentration prolonging aPTT by 50% relative to PBS), human blood” value in assay [1] came out at 1.33 µg/mL. The “aPTT1.5 (concentration prolonging aPTT by 50% relative to PBS), monkey blood” value in assay [2] stood at 1 µg/mL. In assay [3], binding was put at a Kd of 0.148 nM; the koff (as a rule, the first-order rate constant of dissociation) turned out to be 0.000235 s⁻¹; the kon (in general, a measure of how fast the partners come together) came out at 1.59e+06 M⁻¹ s⁻¹.

B2: BAY1213790 (antibody, human IgG1, kappa, V domains shown)
VH: EVQLLESGGGLVQPGGSLRLSCAASGFTFSQYGMDWVRQAPGKGLEWVSGIGPSGGSTVYADSVKGRFTISRDNSKNTLYLQMNSLRAEDTAVYYCTRGGPYYYYGMDVWGQGTTVTVSS
VL: DIQMTQSPSSLSASVGDRVTITCQASQDISNYLNWYQQKPGKAPKLLIYDASNLETGVPSRFSGSGSGTDFTFTISSLQPEDIATYYCQQADSFPVTFGGGTKVEIKR
As to B2, the “aPTT1.5 (concentration prolonging aPTT by 50% relative to PBS), human blood” value in assay [1] was 2.15 µg/mL. In addition, in assay [2], the “aPTT1.5 (concentration prolonging aPTT by 50% relative to PBS), monkey blood” value was 2.73 µg/mL.

B3: antibody 0012 (antibody, V domains shown)
VH: QVQLQQSGAEVKKPGASVKVSCKVSGYTLTELSMHWVRQAPGKGLEWMGGFDPEDGETIYAQKFQGRVTMTEDTSTDTAYMELSSLRSEDTAVYYCATDPHRTWWRYFDWLYPRGMDVWGQGTTVTVSS
VL: EIVMTQSPGTLSLSPGERATLSCRASQTVGKNYLAWYQQKPGQAPRLLIYGASNRATGIPDRFSGSGSGTDFTLTISRLEPEDFGTYYCQQFRSYPYTFGQGTKVEIK
As for B3, in assay [1], the “aPTT1.5 (concentration prolonging aPTT by 50% relative to PBS), human blood” value stood at 14.6 µg/mL. Besides, in assay [2], the “aPTT1.5 (concentration prolonging aPTT by 50% relative to PBS), monkey blood” value was > 8.33 µg/mL.

B4: antibody 1209 (0012-K3) (antibody, human IgG1, kappa, V domains shown)
VH: QVQLQQSGAEVKKPGASVKVSCKVSGYTLTSILMHWVRQAPGKGLEWMGGFDPQDGETVYAQKFQGRVTMTEDTSTDTAYMELSSLRSEDTAVYYCATDPHRTWWRYFDWLYPRGMDVWGQGTTVTVSS
VL: EIVMTQSPGTLSLSPGERATLSCRASQTVGKNYLAWYQQKPGQAPRLLIYEASVRALGIPDRFSGSGSGTDFTLTISRLEPEDFGTYYCQQFRSYPYTFGQGTKVEIKR
Consider B4, for which, in assay [1], the “aPTT1.5 (concentration prolonging aPTT by 50% relative to PBS), human blood” value worked out at 4.68 µg/mL. For the same molecule, the “aPTT1.5 (concentration prolonging aPTT by 50% relative to PBS), monkey blood” value in assay [2] turned out to be 4.08 µg/mL.

B5: antibody 1267 (Kg3g) (antibody, human IgG1, kappa, V domains shown)
VH: QVQLVQSGAEVKKPGASVKVSCKVSGYTLTSILMHWVRQAPGKGLEWMGGFDPQDGETVYAQKFQGRVTMTEDTSTDTAYMELSSLRSEDTAVYYCATDPHRTWWRYFDWLYPRGMDVWGQGTTVTVSS
VL: EIVLTQSPGTLSLSPGERATLSCRASQTVGKNYLAWYQQKPGQAPRLLIYEASVRALGIPDRFSGSGSGTDFTLTISRLEPEDFAVYYCQQFRSYPYTFGQGTKVEIKR
notes: Heavy chain is VH + human CH1 + IgG1 Fc
For the molecule B5, in assay [3], the dissociation constant Kd (as a rule, the free concentration of one partner at which half of the binding sites on the other are occupied at equilibrium, for simple one-to-one binding) came out at 0.0222 nM; the koff amounted to 1.79e-05 s⁻¹; the kon came to 873000 M⁻¹ s⁻¹.

B6: antibody 3871 (antibody, V domains shown)
VH: QVQLVQSGAEVKKPGSSVKVSCKASGFNIKDDYMHWVRQAPGQGLEWMGWIDPENGDTEYASKFQGRVTITADESTSTAYMELSSLRSEDTAVYYCLYGNFYYFDYWGQGTTVTVSS
VL: EIVLTQSPATLSLSPGERATLSCSASSSINYMHWYQQKPGQAPKRWIYDTSKLASGVPARFSGSGSGTDFTLTISSLEPEDFAVYYCHQRSFSPLTFGQGTKLEIK
notes: Humanized from 3807: VH is 3807-VH1 and VL is 3807-VL3
Regarding B6, in assay [1], the “aPTT1.5 (concentration prolonging aPTT by 50% relative to PBS), human blood” value stood at 0.88 µg/mL. In assay [2], the “aPTT1.5 (concentration prolonging aPTT by 50% relative to PBS), monkey blood” value is 1.12 µg/mL. In assay [3], this molecule had a Kd of 0.57 nM, a koff of 0.000708 s⁻¹ and a kon of 1.24e+06 M⁻¹ s⁻¹. In assay [4], this molecule gave a Kd of 0.02 nM, a koff of 2.66e-05 s⁻¹ and a kon of 1.32e+06 M⁻¹ s⁻¹.

B7: antibody 3882 (antibody, human IgG4 S228P, kappa, V domains shown)
VH: QVQLVQSGAEVKKPGSSVKVSCKASGGTFSDDYMHWVRQAPGQGLEWMGWIDPENGDTEYASKFQGRVTITADESTSTAYMELSSLRSEDTAVYYCLYGNFYYFDYWGQGTTVTVSS
VL: EIVLTQSPATLSLSPGERATLSCSASSSINYMHWYQQKPGQAPKRWIYDTSKLASGVPARFSGSGSGTDFTLTISSLEPEDFAVYYCHQRSFSPLTFGQGTKLEIKR
As to B7, the “aPTT1.5 (concentration prolonging aPTT by 50% relative to PBS), human blood” value in assay [1] was determined as 0.63 µg/mL. For the same molecule, in assay [2], the “aPTT1.5 (concentration prolonging aPTT by 50% relative to PBS), monkey blood” value was found to be 1.14 µg/mL. For the same molecule, in assay [3], the dissociation constant Kd came out at 0.364 nM, the koff came out at 0.000387 s⁻¹ and the association rate constant (kon) was found to be 1.06e+06 M⁻¹ s⁻¹. Besides, in assay [4], the affinity, expressed as Kd, was 0.0296 nM; the koff was determined as 5.85e-05 s⁻¹; the association rate constant (kon) came out at 1.97e+06 M⁻¹ s⁻¹.

B8: antibody 3875 (antibody, V domains shown)
VH: QVQLVQSGAEVKKPGSSVKVSCKASGFNIKDDYMHWVRQAPGQGLEWMGWIDPENGDTEYASKFQGRVTITADTSANTAYMELSSLRSEDTAVYYCLYGNFYYFDYWGQGTTVTVSS
VL: EIVLTQSPATLSLSPGERATLSCSASSSINYMHWYQQKPGQAPKRWIYDTSKLASGVPARFSGSGSGTDFTLTISSLEPEDFAVYYCHQRSFSPLTFGQGTKLEIK
notes: Humanized from 3807: VH is 3807-VH5 and VL is 3807-VL3
As to B8, in assay [1], the “aPTT1.5 (concentration prolonging aPTT by 50% relative to PBS), human blood” value is 0.87 µg/mL. For the same molecule, in assay [3], the Kd is 0.22 nM, the koff is 0.000336 s⁻¹ and the association rate constant (kon) amounted to 1.53e+06 M⁻¹ s⁻¹. In assay [4], this molecule returned a Kd of 0.0378 nM, a koff of 3.02e-05 s⁻¹ and a kon of 799000 M⁻¹ s⁻¹.
